Data as given in US9096871B2, “Variant CBH I polypeptides with reduced product inhibition” (BP Corporation North America Inc., priority 2010, dated 2015).

Test: Bagasse assay in the absence and presence of β-glucosidase (BG)
Assay type: biochemical
Conditions: variants of T. reesei CBH I; [(Activity without BG)/(Activity with BG)]*100; conversion of glucan after 72 hours
Experimental: Bagasse Assay: This assay measures the activity of CBH I on bagasse, a lignocellulosic substrate. Reactions were run in 10 ml vials with 5% dilute acid pretreated bagasse (250 mg solids per 5 ml reaction). Each reaction contained 4 mg CBH I enzyme/g solids, 200 mM MES pH 6, kanamycin, and chloramphenicol. Reactions were incubated at 35° C. in hybridization incubators (Robbins Scientific), rotating at 20 RPM. Time points were taken by transferring a sample of homogenous slurry (150 μl) into a 96-well deep well plate and quenching the reaction with stop buffer (450 μl of 500 mM sodium carbonate, pH 10). Time point measurements were taken every 24 hours for 72 hours.
Cellobiose Tolerance Assays (or Cellobiose Inhibition Assays): Tolerance to cellobiose (or inhibition caused by cellobiose) was tested in two ways in the CBH I assays. A direct-dose tolerance method can be applied to all of the CBH I assays (i.e., 4-MUL, PASC, and/or bagasse assays), and entails the exogenous addition of a known amount of cellobiose into assay mixtures. A different indirect method entails the addition of an excess amount of β-glucosidase (BG) to PASC and bagasse assays (typically, 1 mg β-glucosidase/g solids loaded). BG will enzymatically hydrolyze the cellobiose generated during these assays; therefore, CBH I activity in the presence of BG can be taken as a measure of activity in the absence of cellobiose. Furthermore, when activity in the presence and absence of BG are similar, this indicates tolerance to cellobiose. […]
FIGS. 4 and 5 show bar graph data for the bagasse assay of wild type T. reesei CBH I vs. the variants. In FIG. 4, bars represent relative activity, normalized to wild type activity in the absence of cellobiose (WT+BG=1). In FIG. 5, bars represent tolerance to cellobiose, as represented by the ratio of activity in the presence of accumulating cellobiose (−BG) to that of activity in the absence of cellobiose (+BG); ratios close to 1 indicate greater tolerance to cellobiose.

Molecule | Tolerance to cellobiose accumulation % Activity in Bagasse Assay (−/+BG)
R268A/R411A: T. reesei CBH I (SEQ ID NO:2) with R268A and R411A substitutions (protein, listed as Trichoderma reesei) MYRKLAVISAFLATARAQSACTLQSETHPPLTWQKCSSGGTCTQQTGSVVIDANWRWTHATNSSTNCYDGNTWSSTLCPDNETCAKNCCLDGAAYASTYGVTTSGNSLSIGFVTQSAQKNVGARLYLMASDTTYQEFTLLGNEFSFDVDVSQLPCGLNGALYFVSMDADGGVSKYPTNTAGAKYGTGYCDSQCPRDLKFINGQANVEGWEPSSNNANTGIGGHGSCCSEMDIWEANSISEALTPHPCTTVGQEICEGDGCGGTYSDNAYGGTCDPDGCDWNPYRLGNTSFYGPGSSFTLDTTKKLTVVTQFETSGAINRYYVQNGVTFQQPNAELGSYSGNELNDDYCTAEEAEFGGSSFSDKGGLTQFKKATSGGMVLVMSLWDDYYANMLWLDSTYPTNETSSTPGAVAGSCSTSSGVPAQVESQSPNAKVTFSNIKFGPIGSTGNPSGGNPPGGNPPGTTTTRRPATTTGSSPGPTQSHYGQCGGIGYSGPTVCASGTTCQVLNPYYSQCL | 95%
R268K/R411A: T. reesei CBH I (SEQ ID NO:2) with R268K and R411A substitutions (protein, listed as Trichoderma reesei) MYRKLAVISAFLATARAQSACTLQSETHPPLTWQKCSSGGTCTQQTGSVVIDANWRWTHATNSSTNCYDGNTWSSTLCPDNETCAKNCCLDGAAYASTYGVTTSGNSLSIGFVTQSAQKNVGARLYLMASDTTYQEFTLLGNEFSFDVDVSQLPCGLNGALYFVSMDADGGVSKYPTNTAGAKYGTGYCDSQCPRDLKFINGQANVEGWEPSSNNANTGIGGHGSCCSEMDIWEANSISEALTPHPCTTVGQEICEGDGCGGTYSDNKYGGTCDPDGCDWNPYRLGNTSFYGPGSSFTLDTTKKLTVVTQFETSGAINRYYVQNGVTFQQPNAELGSYSGNELNDDYCTAEEAEFGGSSFSDKGGLTQFKKATSGGMVLVMSLWDDYYANMLWLDSTYPTNETSSTPGAVAGSCSTSSGVPAQVESQSPNAKVTFSNIKFGPIGSTGNPSGGNPPGGNPPGTTTTRRPATTTGSSPGPTQSHYGQCGGIGYSGPTVCASGTTCQVLNPYYSQCL | 102%
R268K: T. reesei CBH I (SEQ ID NO:2) with R268K substitution (protein, listed as Trichoderma reesei) MYRKLAVISAFLATARAQSACTLQSETHPPLTWQKCSSGGTCTQQTGSVVIDANWRWTHATNSSTNCYDGNTWSSTLCPDNETCAKNCCLDGAAYASTYGVTTSGNSLSIGFVTQSAQKNVGARLYLMASDTTYQEFTLLGNEFSFDVDVSQLPCGLNGALYFVSMDADGGVSKYPTNTAGAKYGTGYCDSQCPRDLKFINGQANVEGWEPSSNNANTGIGGHGSCCSEMDIWEANSISEALTPHPCTTVGQEICEGDGCGGTYSDNKYGGTCDPDGCDWNPYRLGNTSFYGPGSSFTLDTTKKLTVVTQFETSGAINRYYVQNGVTFQQPNAELGSYSGNELNDDYCTAEEAEFGGSSFSDKGGLTQFKKATSGGMVLVMSLWDDYYANMLWLDSTYPTNETSSTPGAVRGSCSTSSGVPAQVESQSPNAKVTFSNIKFGPIGSTGNPSGGNPPGGNPPGTTTTRRPATTTGSSPGPTQSHYGQCGGIGYSGPTVCASGTTCQVLNPYYSQCL | 92%
R268A/R411K: T. reesei CBH I (SEQ ID NO:2) with R268A and R411K substitutions (protein, listed as Trichoderma reesei) MYRKLAVISAFLATARAQSACTLQSETHPPLTWQKCSSGGTCTQQTGSVVIDANWRWTHATNSSTNCYDGNTWSSTLCPDNETCAKNCCLDGAAYASTYGVTTSGNSLSIGFVTQSAQKNVGARLYLMASDTTYQEFTLLGNEFSFDVDVSQLPCGLNGALYFVSMDADGGVSKYPTNTAGAKYGTGYCDSQCPRDLKFINGQANVEGWEPSSNNANTGIGGHGSCCSEMDIWEANSISEALTPHPCTTVGQEICEGDGCGGTYSDNAYGGTCDPDGCDWNPYRLGNTSFYGPGSSFTLDTTKKLTVVTQFETSGAINRYYVQNGVTFQQPNAELGSYSGNELNDDYCTAEEAEFGGSSFSDKGGLTQFKKATSGGMVLVMSLWDDYYANMLWLDSTYPTNETSSTPGAVKGSCSTSSGVPAQVESQSPNAKVTFSNIKFGPIGSTGNPSGGNPPGGNPPGTTTTRRPATTTGSSPGPTQSHYGQCGGIGYSGPTVCASGTTCQVLNPYYSQCL | 94%
